From the supplement of paper PMC10724198
± gives the standard deviation of the averaged measurements.

The sequences below were run on Saccharomyces cerevisiae (assay: protein stability index of tFT-peptide fusion (C-terminal peptide) (PSI (0-1 scale)); higher = more stable (slower turnover)). Details: genetic background: wild type; temperature: 30 C.
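Further: PSI is a weighted mean of sequencing reads over stability bins, variants kept only with over 10 reads, mCherry proximal and sfGFP distal, peptide attached via GGGS linker.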

First: PPPPPRAPSLLA
Second: PPPPPRPSPRPS
The protein stability index of the first is lower: 0.704 ± 0.03 for the first, 0.796 ± 0.013 for the second.

First: PPPPPSRPPPAL
Second: PPPPPSSPPALL
The protein stability index of the first is higher: 0.7405 ± 0.0049 for the first, 0.663 ± 0.058 for the second.

PPPPPTFPVLTS and PPPPPTLPSCLS are within error of each other in protein stability index: 0.603 ± 0.046 for the first, 0.689 ± 0.063 for the second.

PPPPPTRLPQNS and PPPPRPLPSSNG are within error of each other in protein stability index: 0.694 ± 0.062 for the first, 0.76 ± 0.049 for the second.

PPPPRPPATPFP and PPPPRPPPPATL are within error of each other in protein stability index: 0.676 ± 0.052 for the first, 0.662 ± 0.02 for the second.

Going from PPPPRPPPVPPF to PPPPRPPRDPPR, the protein stability index rises from 0.61 ± 0.048 to 0.6629 ± 0.00098.

PPPPRPSPPPPS and PPPPRPSSPLIL are within error of each other in protein stability index: 0.694 ± 0.028 for the first, 0.741 ± 0.021 for the second.

PPPPRSSPSPLP and PPPPRVLSPAWS are within error of each other in protein stability index: 0.668 ± 0.077 for the first, 0.649 ± 0.072 for the second.

PPPPSLAPRSAL and PPPPSLLPPSPS are within error of each other in protein stability index: 0.724 ± 0.048 for the first, 0.702 ± 0.068 for the second.

PPPPSLPPPLPL and PPPPSLVPPSPL are within error of each other in protein stability index: 0.698 ± 0.022 for the first, 0.677 ± 0.063 for the second.

PPPPSPPSPPPP and PPPPSPRPRPAP are within error of each other in protein stability index: 0.677 ± 0.0094 for the first, 0.657 ± 0.025 for the second.

PPPPSRLPYNPF and PPPPTPLPPPHD are within error of each other in protein stability index: 0.662 ± 0.023 for the first, 0.652 ± 0.037 for the second.

PPPRPPLPPPPS and PPPRPPSTTSPC are within error of each other in protein stability index: 0.727 ± 0.034 for the first, 0.7037 ± 0.0047 for the second.

PPPRPRPPPRPP and PPPRPTHSRPGP are within error of each other in protein stability index: 0.581 ± 0.021 for the first, 0.64 ± 0.057 for the second.

PPPSHYHSQGHN and PPPSPHRLDHLT are within error of each other in protein stability index: 0.686 ± 0.016 for the first, 0.704 ± 0.016 for the second.

Going from PPPSPLPSPPPP to PPPSPLPSPPPS, the protein stability index rises from 0.5916 ± 0.0031 to 0.746 ± 0.043.

PPPSPPLPIPPS and PPPSPPSPLSPP are within error of each other in protein stability index: 0.697 ± 0.022 for the first, 0.675 ± 0.073 for the second.

PPPSSLVPFPLP and PPPSSPTSGHSP are within error of each other in protein stability index: 0.7295 ± 0.0053 for the first, 0.771 ± 0.19 for the second.

First: PPPSTGGTRSNV
Second: PPPTLSPPPPPL
The protein stability index of the first is lower: 0.6809 ± 0.0051 for the first, 0.75 ± 0.034 for the second.

Compared with PPPTPHPLRRTP, PPPTPSPPPLPP is lower in protein stability index: 0.735 ± 0.069 for the first, 0.5748 ± 0.0057 for the second.

Compared with PPPTPTFPVPPH, PPPTSPPRPASP is higher in protein stability index: 0.6021 ± 0.00058 for the first, 0.697 ± 0.059 for the second.

PPPVAPRSPAHL and PPPVPPLPSPLP are within error of each other in protein stability index: 0.713 ± 0.074 for the first, 0.649 ± 0.022 for the second.

PPPVPPPSPPPT and PPPVSLFSPRSL are within error of each other in protein stability index: 0.641 ± 0.07 for the first, 0.781 ± 0.099 for the second.

Compared with PPQPTTPFPSPQ, PPQRHTTPTSWG is higher in protein stability index: 0.6788 ± 0.0063 for the first, 0.75862 ± 0.00034 for the second.

First: PPQTSVASRPTR
Second: PPRASPRMPAGC
The protein stability index of the first is lower: 0.695 ± 0.019 for the first, 0.71506 ± 3.7e-05 for the second.

PPRGDPRAYLPP and PPRNPAALPTPI are within error of each other in protein stability index: 0.654 ± 0.011 for the first, 0.718 ± 0.11 for the second.

PPRPLAPSPTLF and PPRPLPPHPLLL are within error of each other in protein stability index: 0.679 ± 0.021 for the first, 0.681 ± 0.049 for the second.

PPRPLPPPRPSS and PPRPLPPSLPPP are within error of each other in protein stability index: 0.691 ± 0.037 for the first, 0.695 ± 0.037 for the second.

Going from PPRPPFPLPSPL to PPRPPLHPLRLL, the protein stability index falls from 0.703 ± 0.025 to 0.6651 ± 0.0013.

PPRPPLPRPLPP and PPRPPPNTPLPA are within error of each other in protein stability index: 0.657 ± 0.041 for the first, 0.725 ± 0.035 for the second.

PPRPPPPHHVPS and PPRPPSSPLPPR are within error of each other in protein stability index: 0.677 ± 0.093 for the first, 0.733 ± 0.055 for the second.

PPRPSSRVPPPA and PPRPTPLPHAPP are within error of each other in protein stability index: 0.65 ± 0.059 for the first, 0.681 ± 0.02 for the second.

PPRPTPYPPLPP and PPRRPSFAPPHL are within error of each other in protein stability index: 0.674 ± 0.062 for the first, 0.704 ± 0.014 for the second.

PPRSIPLPSPFH and PPRSPHLPRSSL are within error of each other in protein stability index: 0.741 ± 0.016 for the first, 0.664 ± 0.069 for the second.

PPSHGYPPRLIP and PPSHPLSPLSRL are within error of each other in protein stability index: 0.67842 ± 0.00022 for the first, 0.722 ± 0.067 for the second.

Going from PPSLPPPIHLPL to PPSLPPSPPLPP, the protein stability index rises from 0.646 ± 0.011 to 0.694 ± 0.011.

PPSLRFLLPPSA and PPSPDATPLSHI are within error of each other in protein stability index: 0.685 ± 0.058 for the first, 0.678 ± 0.035 for the second.

PPSPHPSASTRP and PPSPLPPTPSHS are within error of each other in protein stability index: 0.714 ± 0.04 for the first, 0.737 ± 0.076 for the second.

Compared with PPSPLPSPPPTF, PPSPLYAFPYPL is higher in protein stability index: 0.718 ± 0.025 for the first, 0.757 ± 0.0099 for the second.

PPSPPDSPPPAS and PPSPPPPALSSS are the same in protein stability index: 0.665 ± 0.014 for the first, 0.665 ± 0.056 for the second.

PPSPPPPLPLLP and PPSPPPPLYPPA are within error of each other in protein stability index: 0.661 ± 0.077 for the first, 0.683 ± 0.038 for the second.

PPSPPPPPPFVP and PPSPPPPPRFLP are within error of each other in protein stability index: 0.717 ± 0.033 for the first, 0.662 ± 0.041 for the second.

PPSPPPPPVVVP and PPSPSLRSLPRP are within error of each other in protein stability index: 0.606 ± 0.11 for the first, 0.626 ± 0.064 for the second.

PPSPSPPPPPPT and PPSRAPPAFPPL are within error of each other in protein stability index: 0.648 ± 0.04 for the first, 0.827 ± 0.2 for the second.

PPSVLLPLACPP and PPSVPAPPLPDP are within error of each other in protein stability index: 0.677 ± 0.008 for the first, 0.675 ± 0.038 for the second.

Going from PPTAPTYRQSQP to PPTFPHLPHSWP, the protein stability index rises from 0.6754 ± 0.001 to 0.792 ± 0.018.

PPTHPPPRLTPL and PPTIHPSPAAPH are within error of each other in protein stability index: 0.707 ± 0.081 for the first, 0.623 ± 0.062 for the second.

PPTPGPPPLRYP and PPTPLIPPLPLH are within error of each other in protein stability index: 0.705 ± 0.068 for the first, 0.716 ± 0.043 for the second.

PPTPPLPPRLPP and PPTPPSIPPSPP are within error of each other in protein stability index: 0.686 ± 0.0098 for the first, 0.624 ± 0.064 for the second.

PPTPSPATSPPP and PPTSPGPGSLYS are within error of each other in protein stability index: 0.713 ± 0.034 for the first, 0.693 ± 0.036 for the second.

Going from PPTSPSNALPFA to PPVLPPPAPLPP, the protein stability index falls from 0.6666 ± 0.0032 to 0.6548 ± 0.0047.

PPVRLLPCVCHF and PPWLPAPFPLPD are within error of each other in protein stability index: 0.708 ± 0.049 for the first, 0.695 ± 0.045 for the second.

PPWPPYPRPPSS and PPWTNALMILLD are within error of each other in protein stability index: 0.679 ± 0.053 for the first, 0.689 ± 0.039 for the second.

Compared with PPYPPTPHQTSH, PPYSIPARAPHP is higher in protein stability index: 0.641 ± 0.034 for the first, 0.7036 ± 0.0015 for the second.

Compared with PQFSPCRLALLS, PQIRTPIPGSFS is higher in protein stability index: 0.616 ± 0.018 for the first, 0.743 ± 0.074 for the second.

PQNTNNPENGHC and PQPEAPSRPQLA are within error of each other in protein stability index: 0.667 ± 0.04 for the first, 0.746 ± 0.065 for the second.

PQRPPPALACPP and PQSKWLTTFRQK are within error of each other in protein stability index: 0.703 ± 0.083 for the first, 0.713 ± 0.095 for the second.

PQSSGVSPIPPP and PQSSLPPLSTSS are within error of each other in protein stability index: 0.77 ± 0.078 for the first, 0.686 ± 0.011 for the second.

PQTSRAPFPPPP and PQVGWFCNRLEV are within error of each other in protein stability index: 0.7125 ± 0.0058 for the first, 0.836 ± 0.17 for the second.

First: PQWFPNYLRLLL
Second: PRAGPPPPPPSP
The protein stability index of the first is lower: 0.517 ± 0.041 for the first, 0.734 ± 0.028 for the second.

PRAPRPHPLTNF and PRASDPPPSPYP are within error of each other in protein stability index: 0.673 ± 0.051 for the first, 0.766 ± 0.057 for the second.

First: PRCPSTPQPEHH
Second: PRELFGFNLAQP
The protein stability index of the first is higher: 0.739 ± 0.027 for the first, 0.692 ± 0.011 for the second.

Going from PRGLGPPGWGRR to PRGLLLPLPCHS, the protein stability index falls from 0.697 ± 0.022 to 0.574 ± 0.00058.

PRLDPTSPPPHA and PRLFLFRSSFPP are within error of each other in protein stability index: 0.675 ± 0.0094 for the first, 0.681 ± 0.048 for the second.

PRLIESYRPITS and PRLPPPHRRPAP are within error of each other in protein stability index: 0.715 ± 0.09 for the first, 0.759 ± 0.022 for the second.

PRLRRVCGQSLV and PRLSLPSAPPRP are within error of each other in protein stability index: 0.6664 ± 0.0066 for the first, 0.732 ± 0.08 for the second.

PRPGQPFSRFRF and PRPGSRCPIKGR are within error of each other in protein stability index: 0.6724 ± 0.0054 for the first, 0.692 ± 0.024 for the second.

PRPLFVHTSSTF and PRPLLLLPPATP are within error of each other in protein stability index: 0.7105 ± 0.0024 for the first, 0.703 ± 0.029 for the second.

Compared with PRPLLVPPLFKS, PRPLPVCTDVHD is lower in protein stability index: 0.768 ± 0.031 for the first, 0.642 ± 0.019 for the second.

Compared with PRPPLPPASPPL, PRPPLPSLHLSP is higher in protein stability index: 0.595 ± 0.044 for the first, 0.679 ± 0.024 for the second.

PRPPPATRPGPP and PRPPPSFPPDPS are within error of each other in protein stability index: 0.688 ± 0.017 for the first, 0.669 ± 0.049 for the second.

PRPPSSSPHPHP and PRPTPPHPPITR are within error of each other in protein stability index: 0.727 ± 0.095 for the first, 0.824 ± 0.027 for the second.

Compared with PRPTPPHSPLLP, PRPVRAVEMLTL is higher in protein stability index: 0.586 ± 0.02 for the first, 0.715 ± 0.029 for the second.

PRSLLSPPGSVD and PRSPTPPPSYSP are within error of each other in protein stability index: 0.704 ± 0.026 for the first, 0.715 ± 0.11 for the second.

PRVCSCFLPTRP and PRVCSLLPSGSF are the same in protein stability index: 0.711 ± 0.01 for the first, 0.711 ± 0.014 for the second.

First: PRYRTPPLPPPG
Second: PSADRQSMRCRR
The protein stability index of the first is lower: 0.55 ± 0.012 for the first, 0.631 ± 0.007 for the second.

PSALPLVPSPLP and PSAPFLPSPPPV are within error of each other in protein stability index: 0.706 ± 0.033 for the first, 0.661 ± 0.021 for the second.

First: PSAWRCFSTGKV
Second: PSDLPPPTPLLA
The protein stability index of the first is higher: 0.844 ± 0.018 for the first, 0.63 ± 0.022 for the second.

First: PSDSRSTPPTPD
Second: PSFFFFAAPLPL
The protein stability index of the first is higher: 0.698 ± 0.033 for the first, 0.623 ± 0.028 for the second.

PSFLPLWFSRLR and PSFVIQRCPMIL are within error of each other in protein stability index: 0.731 ± 0.093 for the first, 0.606 ± 0.076 for the second.
